Entries after “also recorded” stand apart in the source; their conditions may differ.
B1: CD123#2: anti-IL-3Ra (CD123) Nanobody, SEQ ID NO: 14 (protein)
VHH: EVQLVESGGGSVQAGGSLRLSCTTSGRALNMYVMGWFRQAPGNEREFVAATSSSGGSTSYPDSVKGRFTISRDNAKNTVYLQMNSLKPEDTAAYRCAASPYVSTPTMNILEEYRYWGLGTQVTVSS
B2: 238D4: full blocking control CXCR4 Nanobody (protein)
VHH: EVQLMESGGGLVQAGGSLRLSCAASGRTFNNYAMGWFRRAPGKEREFVAAITRSGVRSGVSAIYGDSVKDRFTISRDNAKNTLYLQMNSLKPEDTAVYTCAASAIGSGALRRFEYDYSGQGTQVTVSS
B3: CD123#1: anti-IL-3Ra (CD123) Nanobody, SEQ ID NO: 15 (protein)
VHH: EVQLVESGGGLVQAGGSLRLSCAASGSIFSGNVMGWYRRQAPGKEREWVAAIASGGSIYYRDSVKGRFTISRDNAKNTVYLQMNSLKPEDTAVYYCNSHPPTLPYWGLGTQVTVSS
B4: IL12Rb1#30: IL-12Rβ1 specific ligand competing Nanobody (protein)
VHH: EVQLVESGGGLVQTGGSLRLSCAASGRTPRLVAMGWFRQTPGKEREFVGEIILSKGFTYYADSVKGRFTISRVNAKNTITMYLQMNSLKSEDTAVYYCAGRQNWSGSPARTNEYEYWGQGTLVTVSS
B5: CD4#8: anti-CD4 Nanobody, SEQ ID NO: 25 (protein)
VHH: EVQLVESGGGSVQPGGSLTLSCGTSGRTFNVMGWFRQAPGKEREFVAAVRWSSTGIYYTQYADSVKSRFTISRDNAKNTVYLEMNSLKPEDTAVYYCAADTYNSNPARWDGYDFRGQGTQVTVSS

Key:
HEK293T-wt cells = test: FACS binding to non-transfected HEK293T-wt cells (specificity); set-up: species or system human; conditions: data not shown
Procedure: Nanobody binding to membrane associated human IL-3Rα was analysed on HEK293T cells transfected with pcDNA3.1-IL3Rα (NM_002183.2) and non-transfected cells. Surface expression was confirmed by FACS using IL-3Rα specific antibodies (R&D MAB301 and BD Pharminogen 554528), followed by goat anti-mouse PE (Jackson Immuno Research 115-115-164). Briefly, serial dilutions of Nanobodies were allowed to associate for 30 minutes at 4° C. in FACS buffer (PBS 1×+10% FBS+0.05% azide). Following this, cells were washed by centrifugation and probed with 6.7 nM anti-FLAG for 30 minutes at 4° C., to detect bound Nanobody. Detection was done with […] for 30 minutes at 4° C. Cells were washed and incubated with TOPRO3 to stain for dead cells, which are then removed during the gating procedure. The cells were then analysed via a BD FACSArray. The results are depicted in FIG. 1.2.

[1] = molecular target: T1, recombinant IL-3Rα ectodomain (Homo sapiens, UniProt P26951); test: SPR (ProteOn) on recombinant IL-3Rα ectodomain; format: binding
T1 construct: Immobilisation of recombinant IL-3Rα ectodomain (Sino Biologicals) was done until 761 RU; purchased Sino Biologicals
T1 sequence (P26951 19-305 limits assumed): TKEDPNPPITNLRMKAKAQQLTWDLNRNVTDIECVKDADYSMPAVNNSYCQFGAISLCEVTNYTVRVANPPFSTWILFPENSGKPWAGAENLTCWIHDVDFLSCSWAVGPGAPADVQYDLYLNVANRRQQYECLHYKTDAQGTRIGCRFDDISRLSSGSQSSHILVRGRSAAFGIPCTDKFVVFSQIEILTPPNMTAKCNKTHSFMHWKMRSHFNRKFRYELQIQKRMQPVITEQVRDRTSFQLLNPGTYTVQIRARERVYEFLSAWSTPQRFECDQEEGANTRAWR
Procedure: The affinities of CD123 specific Nanobodies were further investigated via Surface Plasmon Resonance (SPR) at ProteOn. Immobilisation of recombinant IL-3Rα ectodomain (Sino Biologicals) was done until 761 RU. The Nanobodies were applied at a highest concentration of 1 μM, followed by a three-fold titration, covering 5 further concentrations ranging from 1 μM to 4.1 nM. These were then applied in a single injection cycle, utilising the ProteOn's specific one-shot kinetics approach for kinetic analysis. Evaluation of the association/dissociation data was performed by fitting a 1:1 interaction model (Langmuir binding model). […] For CD123 Nanobodies the obtained KD values correlated well with the apparent affinities retrieved by cell binding EC50 values (see Table 3).

[2] = molecular target: T2, CXCR4 on Jurkat E6-1 cells (Homo sapiens, UniProt P61073); test: CXCL12/SDF-1a induced chemotaxis of Jurkat E6-1 cells; format: cell-based; conditions: monovalent CXCR4 Nanobodies, Table 4; read-out: Chemotaxis Jurkat IC50
T2 construct: endogenous in cells; host or cells: Jurkat E6-1
T2 sequence (P61073 whole entry): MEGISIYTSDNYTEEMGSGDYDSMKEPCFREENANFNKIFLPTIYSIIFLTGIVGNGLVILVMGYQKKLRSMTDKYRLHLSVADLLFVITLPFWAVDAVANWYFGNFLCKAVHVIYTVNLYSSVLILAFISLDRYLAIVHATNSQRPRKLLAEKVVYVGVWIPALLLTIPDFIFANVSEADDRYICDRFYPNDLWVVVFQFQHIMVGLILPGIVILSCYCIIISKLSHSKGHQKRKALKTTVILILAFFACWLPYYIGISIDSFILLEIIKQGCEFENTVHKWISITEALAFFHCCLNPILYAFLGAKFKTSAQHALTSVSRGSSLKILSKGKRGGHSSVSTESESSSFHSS
Procedure: To verify if bispecific CXCR4-IL3Ra polypeptides show increased affinity and potency on cells expressing both receptors, a CXCR4-dependent functional assay was carried out. To this end SDF-1a dependent chemotaxis on Jurkat E6-1 (CXCR4+/IL3Ra−), and MOLM-13 cells (CXCR4+/IL3Ra+) was performed for direct comparison of cells expressing both or only one receptor. Since the functional blockade is only mediated via CXCR4, avidity by the simultaneous binding of the anti-IL3Ra Nanobody® is expected to translate into increased potency in inhibition of chemotaxis.
Bispecific polypeptides were analyzed for inhibition of CXCL12-induced chemotaxis on cells endogenously expressing CXCR4. As chemoattractant a concentration of 750 pM SDF-1a was used on 100,000 cells/well for the Jurkat cell line, and 500,000 cells/well for the MOLM-13 cell line. On each plate the corresponding monovalent CXCR4 Nanobody was included as reference, allowing to calculate the fold increase of the bispecific within each plate. As additional control 1:1 mixtures of monovalent Nanobodies were included. In Table 9 the respective IC50 values are shown (average of n=3 experiments).
To verify if bispecific CXCR4-IL-3Ra polypeptides show increased affinity and potency on cells expressing both receptors, a CXCR4-dependent functional assay was done. Since MOLM-13 cells express CD4 in conjunction with CXCR4 and CD123, the same experimental set-up was used as described for the CXCR4-CD123 bispecific Nanobodies (see: Example 1.5.5).
Dose-dependent inhibition of CXCL12-induced chemotaxis by the panel of bispecific CD4-CXCR4 Nanobodies was determined on Jurkat (CXCR4+/CD4 low), and Molm-13 cells (CXCR4++/CD4++). As reference anti-CXCR4 antibody 12G5 was included on each plate. […] Remarkably, bispecific constructs in the inverse orientation were able to block CXCR4 function, despite their reduced affinity for CXCR4 due to the unfavourable position, although the blockade was partial. The much larger potency increases observed with Nanobodies targeting the CD4 and CXCR4 combination is most likely related to the higher relative expression levels of CD4 compared to CD123 on the Molm-13 cells.

[3] = molecular target: T3, CXCR4 on Caki-CXCR4 cells (Homo sapiens, UniProt P61073); test: Biotinylated SDF-1 displacement on Caki-CXCR4 cells (flow cytometry); format: binding; conditions: 30 nM biotinylated SDF-1; read-out: Ligand competition Biotin-SDF-1 IC50
T3 construct: expressed in transfected cells; host or cells: Caki-CXCR4
T3 sequence (P61073 whole entry): as above
Procedure: CXCR4 Nanobodies were analysed for their ability to compete with the ligand CXCL12 (or SDF-1a) for receptor binding, by displacement of biotinylated SDF-1 on Caki-CXCR4 cells in flow cytometry. To this end serial dilutions of Nanobodies were incubated with 30 nM of biotinylated SDF-1 (R&D Systems Fluorokine kit) on cells, after which ligand binding was visualised using extravidin-PE. The biotin-SDF-1 competitor concentration used in this assay was below the EC50 value obtained in dose-titration, where IC50 values should reflect the Ki.

[4] = molecular target: T4, CXCR4 (membrane extracts of Hek-CXCR4 cells) (Homo sapiens, UniProt P61073); test: [125I]-CXCL12 radio-ligand displacement on membrane extracts of Hek-CXCR4 cells; format: binding
T4 construct: expressed in transfected cells; host or cells: Hek293 (membrane extracts)
T4 sequence (P61073 whole entry): as above
Procedure: CXCR4 Nanobodies were analysed in radio-ligand displacement assay on membrane extracts of Hek-CXCR4 cells. The advantage of using the radiolabelled ligand is the increased sensitivity, and the low competitor concentration ensures the determination of Ki values (i.e. the real affinity constant) instead of measuring the IC50 value. This makes it possible to accurately determine the potencies of low affine Nanobodies, even though they may not reach full displacement.
Non-specific binding was determined in presence of 100 nM cold SDF-1. As controls full blocking CXCR4 Nanobodies 238D4 and 281A6 were included. The assay was performed three times, and average percentages of SDF-1 inhibition were calculated.

[5] = molecular target: T3, CXCR4 on Caki-CXCR4 cells; test: Binding of CXCR4 Nanobodies to Caki-CXCR4 cells
[6] = molecular target: T5, human IL12Rβ1 extracellular domain Fc-fusion (Homo sapiens, UniProt P42701); test: SPR (Biacore T100) on IL12Rβ1-Fc; format: binding
T5 construct: Fc-fusions of human IL12Rβ1, IL12Rβ2 and IL-23R extracellular domains; purchased R&D Systems #839-B1
Procedure: The precise binding affinities of the purified Nanobodies were determined in a multi-cycle kinetic analysis using Surface Plasmon Resonance analysis (Biacore T100) on Fc-fusions of human IL12Rβ1, IL12Rβ2 and IL-23R extracellular domains (R&D Systems, #839-B1, #1959-B2, #1400-IR). Sensorchips CM5 were immobilized with anti-hIgG antibody (GE Healthcare, BR-1008-39), after which receptors were captured at 5 μg/ml protein and contact time of 120 seconds. Running buffer used was HBS-EP+ (GE Healthcare, BR-1006-69) at 25° C., with a flow-rate of […]. For immobilization by amine coupling, EDC/NHS was used for activation and ethanolamine HCl for deactivation (Biacore, amine coupling kit). Nanobodies were evaluated at a concentration range between 1.37 nM and 3 μM. Nanobodies were allowed to associate for 2 min and to dissociate for 15 min at a flow rate of […]. In between injections, the surfaces were regenerated with a 3 min pulse of 3M MgCl2 and 2 min stabilization period. Evaluation of the association/dissociation data was performed by fitting a 1:1 interaction model (Langmuir binding model) by Biacore TWO software v2.0.3.

cytotoxic CD8+ T cells = test: Binding to isolated CD8+ T cells (FACS); set-up: species or system human; conditions: Nanobodies at 250 nM
Procedure: The pool of activated T cells comprises both CD4+ T cells and CD8+ T cells. To confirm the specificity of the anti-CD4 Nanobody and to exclude binding to CD4-negative cells, binding was assessed to cytotoxic CD8+ T cells isolated from human PBMCs using the CD8+ T Cell Isolation Kit (Miltenyi Biotech, 130-096-495), resulting in 94% purity of CD8+ cells. Binding specificity experiments were carried out using Nanobodies at 250 nM. […] Similar data were obtained for the IL12Rβ2 and IL23R Nanobodies.

[7] = tested on: CD8+/CD4− gated and CD4+ gated T cells; test: Multi-colour FACS on TH1 activated T cells gated for CD8 or CD4; format: binding, human; conditions: donor D838; anti-flag-APC detection
Procedure: To elucidate if CD4-IL12R bispecific polypeptides preferentially bind to the CD4+/IL12R+ TH1 cell subset within the pool of T cells, Nanobody binding was analysed to a pool of activated T cells gated for either CD8 (detected by Anti-hu CD8 PE-Cy7 conjugated monoclonal antibody (BD 557746) or CD4 (detected by Anti-hu CD4 alexa Fluor 488-conjugated polyclonal antibody (R&D FAB8165G) in a multi-colour FACS experiment. Nanobody binding to the CD8+/CD4− gated cells and to CD4+ gated cells was determined using anti-flag-APC (Prozyme PJ255) detection. In this experiment TH1 activated T cells from the same donor (D838) as shown in FIG. 3.6 were used.

[8] = molecular target: T6, recombinant human CD4 / HIV1 gp120 interaction (Homo sapiens, UniProt P01730); test: gp120 - CD4 competition ELISA; format: binding; conditions: 500 nM Nanobody
T6 construct: purchased Invitrogen
Procedure: Therefore a panel of CD4 Nanobodies was analysed for the capacity to block the interaction with the viral gp120 protein. Briefly, CD4 Nanobodies were analysed for the ability to compete with gp120 protein binding to recombinant CD4 in ELISA. Briefly, plates were coated with 20 ug/mL sheep anti-gp120 antibodies. lug/mL of HIV1 gp120 protein was captured for 1 hr at room temperature. Biotinylated recombinant human CD4 (Invitrogen) at 0.5 μg/mL was pre-incubated with 500 nM anti-CD4 Nanobodies, or control antibodies mouse anti-CD4 mAb B-A1 and F5 (Diaclone) and rabbit anti-CD4 pAb (ImmunoDiagnostic Inc) for 1hr, after which mixture was transferred to the coated plates and incubated for 1 hr. Detection of bound CD4 was done with Extravidin-peroxidase conjugate. […] Characteristics of Nanobody CD4 are found in Table 2.1.

Row | Molecule | binding to HEK293T-wt cells (HEK293T-wt cells) | SPR - IL-3Ra ka [1] | SPR - IL-3Ra kd [1] | binding to isolated CD8+ T cells (cytotoxic CD8+ T cells) | binding to CD4+ gated and CD8+ gated T cells [7] | also measured
1 | B1 | lack of binding | 84000 M⁻¹ s⁻¹ | 0.0014 s⁻¹ | – | – | –
2 | B2 | – | – | – | – | – | IC50 [2]: 7.6 nM; IC50 [3]: 2.1 nM; efficacy of SDF-1 displacement ([4]; radio-ligand displacement): full efficacy; Ki ([4]; read-out: Ligand competition [125I]-SDF-1 Ki, 75 pM [125I]-CXCL12): 5.4 nM; EC50 [5]: 3.4 nM
3 | B3 | lack of binding | 1e+06 M⁻¹ s⁻¹ | 0.00081 s⁻¹ | – | – | –
4 | B4 | – | – | – | did bind | low fluorescence signals to both CD4+ and CD8+ cells | Binding kinetics (SPR) ka (1/Ms), IL12Rβ1 [6]: 450000 M⁻¹ s⁻¹; Binding kinetics (SPR) kd (1/s), IL12Rβ1 [6]: 0.0015 s⁻¹
5 | B5 | – | – | – | No binding | strong binding to the CD4+ gated population; also recorded: only a low signal was observed to the CD8+ population | inhibition of gp120 - CD4 interaction [8]: inhibit the interaction with gp120
